This data set can be described thus: yeast display, Sf9 membrane polyspecificity reagent, FACS + sequencing; frameworks hold sequencing errors. An outline of the steps:
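Polyreactivity labels are assigned by the sorting gate from which each nanobody was recovered. The gates were low and high (top ~1%), set on anti-HA fluorescence for expression and streptavidin fluorescence for reagent binding. Before sorting, galactose-induced (36–48 hours) yeast display cells were stained for 1 hour at 4 °C with 10% biotinylated, detergent-solubilized Sf9 membrane reagent.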
With “QVQLVESGGGLVQAGGSLRLSCAASGSIFVSYAMVWYRQAPGKERELVAAITRSGGSTYYADSVKGRFTISRDNAKNTVYLQMNSLKPEDTAVYYCAARSYLGAYRRYYWGQGTQVTVSS”, the “polyreactivity (PSR sort gate)” value is “high polyreactivity”.
The same measure for “QVQLVESGGGLVQAGGSLRLSCAASGSIFVSYARGWYRQAPGKERELVAAITGRTGSTYYADSVKGRFTISRDNAKNTVYLQMNSLKAEDTGVYYCAARHKQHNRYDYWGQGTKVTVSS”: “low polyreactivity”; for “QVQLVESGGGLVQAGGSLRLSCAASGSIFVTNAMGWYRQAPGKERELVAAINQGGGSTYYADSVKGRFTISRDNAKNTVYLQMNSLKPEDTAVYYCATDAPYFVPFSTNGEFGDEYWGQGTQVTVSS”: “low polyreactivity”.
The same measure for “QVQLVESGGGLVQAGGSLRLSCAASGSIFVTNAMGWYRQAPGKERELVAAISVSGGSTYYADSVKGRFTISRDNAKNTVYLQMNSLKPEDTGVYYCAADGYIGWRHIYEYWGQGTQVTVSS”: “low polyreactivity”.
Turning to “QVQLVESGGGLVQAGGSLRLSCAASGSIFVTYAMGSYRQAPGKERELVAAITSIGGTTYYSDSVKGRFTISRDNAKNTVYLQMNSLKPEDTAVYYCAVDGGEFSSYGYWGQGTEVTVSS”, the “polyreactivity (PSR sort gate)” value is “low polyreactivity”.
In the case of “QVQLVESGGGLVQAGGSLRLSCAASGSIFVTYAMGWYRQAPGKERELVAAISTSGGSTYADSVKGRFTISRDNAKNTVYLQMNSLKPEDTAVYYCNADDPGYAVPWYWFKYDYWGQGTQVTGSS”, the “polyreactivity (PSR sort gate)” value is on record as “low polyreactivity”.
Then “QVQLVESGGGLVQAGGSLRLSCAASGSIFVTYAMGWYRQAPGKERELVAAITGRDGITYADSVKGRFTISCDNAKNTVYVQMNSLKPEDTAVYYCAAVSHGVYYQYRRRYYSWGQGTQVTVSS”, with “high polyreactivity”.
Then “QVQLVESGGGLVQAGGSLRLSCAASGSIFVVYAMGWYRQAPGKERELVAAITADDDTNYADSVKGRFTISRDNAKNTDYLQMNSLKPEDTAVYYCAKEVWLAINTRTGYEVYYWGQGTQVTVSS”, with “low polyreactivity”; and “QVQLVESGGGLVQAGGSLRLSCAASGSIFVWNARGWYRQAPVKERELVAAISYTDGSTYYADFVKGRFTISRDNAKNTVYLQMNSLKPEDTAVYFCAAAITRSYTGSEYDYWGQGTEVTVSS”, with “low polyreactivity”.
As for “QVQLVESGGGLVQAGGSLRLSCAASGSIFVWYAMGWYRQEPGKERELVATISSRGGTTYYADSVKGRFTISRDNAKNTVYLQMNSLKPEDTAVYYCNAKRRAQYGYRVFRYDYWGQGTQVTVSS”, the “polyreactivity (PSR sort gate)” value is “high polyreactivity”.
Then “QVQLVESGGGLVQAGGSLRLSCAASGSIFVWYDLGWYRQAPGKERELVATISLSGVSTYYADSVKGRFTISRDNAKNTVYLQMNSLKPEDTAVYYCAADFVEQGEDDYWGQGTQVTVSS”, with “low polyreactivity”; and “QVQLVESGGGLVQAGGSLRLSCAASGSIFVYNAMGWYRQAPGKERELVAAITTGGSTNYADSVKGRFTISRDNAKNTVYLQMNSLKPEDTAVYDCNAVHEASYAGVDYWGQGTQVTVSS”, with “low polyreactivity”.
The same measure for “QVQLVESGGGLVQAGGSLRLSCAASGSIFVYNAMGWYRQAPGKERELVAAITWSGGNTYYADSVKGRFTISRDNAKNTVYLEMNSLKPEDTAVSYCPAEFWQQGGWWEYDYWGQGTQVTVSS”: “low polyreactivity”; for “QVQLVESGGGLVQAGGSLRLSCAASGSIFVYNAMGWYRQAPVKERELVAVITLRSGSTNYADSVKGRFTISRDNEKNTVYLQMNSLKPEDTAVYYCAADDTYHDYQRDTDDDYWGQGTQVTVSS”: “low polyreactivity”; for “QVQLVESGGGLVQAGGSLRLSCAASGSIFVYYAMGWYRQAPGKERELVAAISSTGGRTYYADSVKGRFTISRDNAKNTVYLQMNSLKPEDTAVYYCNAARTGYRYYDWFYDYDYWGQGTQVTVSS”: “low polyreactivity”.
For the sequence “QVQLVESGGGLVQAGGSLRLSCAASGSIFVYYSMGWYRQAPGKERELVATISSGASTYYADSVKGRFTISRDNAKNTVYLQMNSLKPEDTAVYYCNADNLAGSVEHDYWGQGTQVTVSS”, the “polyreactivity (PSR sort gate)” value is given as “low polyreactivity”.
The same measure for “QVQLVESGGGLVQAGGSLRLSCAASGSIFWDYAMGRYRQAPGKERELVASITSGGSTYYADSVKGRFTISRDNAKNTVYLQMNSLKPEDTAVYYCAADGHTRHWGQTGRGAMYYWGQGTQVTVSS”: “low polyreactivity”; for “QVQLVESGGGLVQAGGSLRLSCAASGSIFWFNAMGWYRQAPGKEREFVASISRSGGTTYYAHSVKGRFTISRDNAKNTVYLQMNSLKPEDTAVYYFNARAYGNGLGTGYFGKHRYDYWGQGTQVTVSS”: “low polyreactivity”; for “QVQLVESGGGLVQAGGSLRLSCAASGSIFWGYAMGWYRQAPGKERELVASIGGDSTNYADSVKGRFTISRDNAKNTVYIQMNSLKQEYTPVYYCAARYRTDYYPEYEYWGQGTEVTVSS”: “low polyreactivity”.
Then “QVQLVESGGGLVQAGGSLRLSCAASGSIFWGYAMGWYRQAPGKERELVATITYGGDSTYYADSVKGRFTISRDNANNTVFLQMNSLKTEDTAVYYCNVGVEPYDYDYWGQCTQVTVSS”, with “low polyreactivity”.
The same measure for “QVQLVESGGGLVQAGGSLRLSCAASGSIFWGYEMGSYRQAPGKERELVAAINRGGSTYYADSVKGRFTRSRDNAKNTVYLQMNSLKPEDTAVYYCAAGYPSWYYGYPYDSWGQGTQVTVSS”: “low polyreactivity”; for “QVQLVESGGGLVQAGGSLRLSCAASGSIFWLYAMGWYRQATGKERELVAAINWTGGSTNYADSVKGRFTISRDNAKNTVYLQMNSLKPEDTAVYFCAAEGVPDALDRVYWGQGTQVTVSS”: “low polyreactivity”.
“QVQLVESGGGLVQAGGSLRLSCAASGSIFWPNAMGWYRQAPGKERELVAAIRRSGGSTYYADSVKGRFTISRDNAKNTVYLQMNSLKPEDTAVYYCAARADLHRRVRNIYYSWGQGTQVTVSS”: the “polyreactivity (PSR sort gate)” value is listed as “low polyreactivity”.
Regarding “QVQLVESGGGLVQAGGSLRLSCAASGSIFWPNSMGWYRQAPGKERELVAAISWGTGSTYYADSVKGRFTISRDNAKNTVYLQMNSLKPEDTAVYYCAADGAYLDPYYDYWGQGTQVTVSS”, the “polyreactivity (PSR sort gate)” value is listed as “low polyreactivity”.
Then “QVQLVESGGGLVQAGGSLRLSCAASGSIFWPYAMGWYRQAPGKEREFVATISSSGSRTHYADSVKGRFTISRDNAKNTVSLQMNSLKPEDTAVYYCNADNPYSDGADSLGNYWGQGTQVTVSS”, with “low polyreactivity”; and “QVQLVESGGGLVQAGGSLRLSCAASGSIFWQNGMGWYRQAPGKEREFVAAITRTGGSTYYADSVKGRFTISRDNAKNTVYLQMNSLKPEDTAVYYCAARGGYRYTRYDYWGQGTQVTVSS”, with “high polyreactivity”; and “QVQLVESGGGLVQAGGSLRLSCAASGSIFWRNAMGWYRQAPGKERALVAAISGNGGTTYYADSVKGRFTISRDYAKNTVYLQINSLKPEDTAVYYCAKVGKTYRTYEDWGQGTQVTVSS”, with “high polyreactivity”.
The same measure for “QVQLVESGGGLVQAGGSLRLSCAASGSIFWSNAMGWYRQAPGKERELVAAINQSGTSTYYADSVKGRFTISRDNAKNTVYLQMNSLKTEDTAVYYCAADQVGWTYDYWGQGTQVSVSS”: “low polyreactivity”; for “QVQLVESGGGLVQAGGSLRLSCAASGSIFWSNAMGWYRQAPGKERELVAAITWSGGSTYADSVKGRFTISRDNAKNTVYLQMNSLKPEDTAVYYCAAERAILSSDKQSLWRFDYWGQGTQVTVSS”: “low polyreactivity”.
Consider “QVQLVESGGGLVQAGGSLRLSCAASGSIFWSNAMGWYRQAPGKERELVAAITWSGGSTYADSVKGRFTISRDNAKNTVYLQMNSLKPEDTAVYYCATDYPWAWFESDYWGQGTQVTVSS”, for which the “polyreactivity (PSR sort gate)” value is recorded as “low polyreactivity”.
Then “QVQLVESGGGLVQAGGSLRLSCAASGSIFWSNDMGWYRQAPGKERELVAAITITGDTTYYADSVKGRFTISRDNAKNTVYLQMNSLKPEDTAVYYCAAVEVRRVADYGFCLLDYWGQGTQVTVSS”, with “high polyreactivity”; and “QVQLVESGGGLVQAGGSLRLSCAASGSIFWSYAMGWYRQAPGKERELVAAITWGCGSTNYADSVKGRFTISRDNAKNTVYLQMNSLIAEDTGVYYCATDNRYVVDYDYWGQGTQVTVSS”, with “high polyreactivity”.
Then “QVQLVESGGGLVQAGGSLRLSCAASGSIFWTIAMGWYRQSPGKERELVASIHSSDASTDYADSVKGRFTISRDNAKNTVYLKMNSLKPEDTAVYYCNAAGAYPYYSEDYYWGQGTQVTVSS”, with “low polyreactivity”.
The same measure for “QVQLVESGGGLVQAGGSLRLSCAASGSIFWTNAMGCYRQAPGKERELVASIHSSDASTDYADSVKGRFTISRDNEKNTVYLQMNSLKPEDTAVYYCNAAGAYPYYSEDYYWGQGSQVTVSS”: “low polyreactivity”; for “QVQLVESGGGLVQAGGSLRLSCAASGSIFWTNAMGWYRQAPGKERELVAAIRVSTGSTYYADSVKGRFTISRDNAKNTVYLQMNSLKPEVTAVYYFAARTYGWGYDYWGQGTQVTVSS”: “low polyreactivity”.
For the sequence “QVQLVESGGGLVQAGGSLRLSCAASGSIFWVYAMGWYRQAPGKEREFVATISTDGGSTHYADSVKGRFTISRDNAKNTFYLQMNSLKPEDTAVYYCAADTPWYDDNYDYWGQGTQVTVSS”, the “polyreactivity (PSR sort gate)” value was “low polyreactivity”.
Then “QVQLVESGGGLVQAGGSLRLSCAASGSIFWVYTMGWYREAPGKERELVAASRSRGGSTYYADSVKGRFTISRDKAKNTVYLQMNSLKPEDTAVYYGNADYYYEVDSWGQGTQVTVSS”, with “low polyreactivity”; and “QVQLVESGGGLVQAGGSLRLSCAASGSIFWWNAMGWYRQAPGKERELVAGISRGGSTYYADSVKGRFTISRDNAKNTVYLQMNSLKPEDTAVYYCNADSDPVPAGYDYWGQGTQVTLSS”, with “low polyreactivity”; and “QVQLVESGGGLVQAGGSLRLSCAASGSIFWWNAMGWYRQAPGKERELVARITRGGTTYYADSVKGRFTISRDNAKNTVYLQMNSLKPEDTAVYSCNAVSGWSRYDFWGQGSQVTVSS”, with “low polyreactivity”.
The same measure for “QVQLVESGGGLVQAGGSLRLSCAASGSIFWWNTMGWYRQAPGTERELVAAITFSGGSTYYADSVKGRFTISRDNAKNTVYLQMNSLKPEDTAVYYCNADGWVSVRGTWSDGGYWGQGTQVTVSS”: “low polyreactivity”.

These data come from the nanobody polyreactivity screen of Harvey et al. (2022).
